Reference: US20150004189A1 (published 2015)

Assays:
[1] = target: HLA DQ molecule DQB1*0503 (human); assay: inhibition of radiolabeled peptide binding to purified HLA class II
[2] = target: HLA DQ molecule DQB1*0502 (human); assay: as above
[3] = target: HLA DQ molecule DQB1*0602 (human); assay: as above
[4] = target: HLA DQ molecule DQB1*0202 (human); assay: as above
[5] = target: HLA-DP molecule DPB1*2001 (human); assay: inhibition of radiolabeled peptide binding to purified HLA-DP
[6] = target: T1, HLA-DP molecule DPB1*0101 (human, UniProt P20036 29-222; P04440 30-225, limits assumed); assay: as above
T1 MHC II alpha: not shown
T1 MHC II beta: not shown

[7] = target: T2, HLA-DP molecule DPB1*0401 (human); assay: as above
T2 chain 1: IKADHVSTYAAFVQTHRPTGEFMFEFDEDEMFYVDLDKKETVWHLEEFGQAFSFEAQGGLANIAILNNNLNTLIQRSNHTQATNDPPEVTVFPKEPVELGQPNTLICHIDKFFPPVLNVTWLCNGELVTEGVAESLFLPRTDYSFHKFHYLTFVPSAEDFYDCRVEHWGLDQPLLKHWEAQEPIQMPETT
T2 chain 2: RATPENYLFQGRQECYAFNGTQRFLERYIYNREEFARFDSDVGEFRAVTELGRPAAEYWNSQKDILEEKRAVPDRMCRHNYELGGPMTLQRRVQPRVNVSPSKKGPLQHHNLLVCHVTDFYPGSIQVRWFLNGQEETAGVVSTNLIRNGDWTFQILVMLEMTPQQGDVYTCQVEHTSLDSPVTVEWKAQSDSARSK

[8] = target: T3, HLA-DP molecule DPB1*0201 (human, UniProt P20036 29-222; P04440 30-225, limits assumed); assay: as above
T3 MHC II alpha: not shown
T3 MHC II beta: not shown

[9] = target: HLA DQ molecule DQB1*0602 (human); assay: inhibition of radiolabeled peptide binding to purified HLA class II; remark: listed apart in the source
[10] = target: HLA DQ molecule DQB1*0502 (human); assay: as above; remark: listed apart in the source
[11] = target: HLA DQ molecule DQB1*0503 (human); assay: as above; remark: listed apart in the source
[12] = target: HLA DQ molecule DQB1*0202 (human); assay: as above; remark: listed apart in the source
[13] = target: HLA DQ molecule DQB1*0503 (human); assay: inhibition of radiolabeled peptide binding to purified HLA DQ
[14] = target: HLA DQ molecule DQB1*0202 (human); assay: as above
[15] = target: HLA DQ molecule DQB1*0602 (human); assay: as above
[16] = target: HLA DQ molecule DQB1*0502 (human); assay: as above
[17] = target: HLA-DP molecule DPB1*1401 (human); assay: inhibition of radiolabeled peptide binding to purified HLA-DP
[18] = target: T4, HLA-DP molecule DPB1*0501 (human, UniProt P20036 29-222; P04440 30-225, limits assumed); assay: as above
T4 MHC II alpha: not shown
T4 MHC II beta: not shown

[19] = target: T5, HLA DP molecule DPB1*0201 (human); assay: competition vs radiolabeled peptide, purified HLA-DP
T5 chain 1: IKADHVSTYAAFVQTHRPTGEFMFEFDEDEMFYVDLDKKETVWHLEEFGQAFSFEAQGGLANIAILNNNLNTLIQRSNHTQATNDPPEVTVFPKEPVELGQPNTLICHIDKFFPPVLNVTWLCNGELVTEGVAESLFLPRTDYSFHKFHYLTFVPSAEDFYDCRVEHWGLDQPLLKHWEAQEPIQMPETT
T5 chain 2: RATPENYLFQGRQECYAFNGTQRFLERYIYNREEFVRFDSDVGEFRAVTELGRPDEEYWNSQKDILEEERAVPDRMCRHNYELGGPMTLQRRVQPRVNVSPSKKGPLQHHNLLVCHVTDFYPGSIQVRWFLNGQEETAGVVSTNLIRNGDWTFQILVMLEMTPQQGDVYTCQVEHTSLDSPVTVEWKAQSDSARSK

[20] = target: T6, HLA DP molecule DPB1*0401 (human); assay: as above
T6 chain 1: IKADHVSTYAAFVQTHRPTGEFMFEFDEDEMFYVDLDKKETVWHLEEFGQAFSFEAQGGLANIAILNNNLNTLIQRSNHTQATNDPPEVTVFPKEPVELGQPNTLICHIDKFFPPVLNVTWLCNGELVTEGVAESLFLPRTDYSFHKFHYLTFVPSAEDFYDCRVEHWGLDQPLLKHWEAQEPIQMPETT
T6 chain 2: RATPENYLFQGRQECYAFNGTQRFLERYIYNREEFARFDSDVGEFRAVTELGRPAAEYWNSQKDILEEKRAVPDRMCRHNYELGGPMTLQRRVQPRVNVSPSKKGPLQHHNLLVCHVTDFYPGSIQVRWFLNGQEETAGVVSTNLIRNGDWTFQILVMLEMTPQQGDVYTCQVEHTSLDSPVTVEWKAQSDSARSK

[21] = target: HLA-DQ molecule DQB1*0202 (human); assay: competition: inhibition of radiolabeled peptide binding to purified HLA
[22] = target: HLA-DQ molecule DQB1*0602 (human); assay: as above
[23] = target: HLA-DQ molecule DQB1*0503 (human); assay: as above
[24] = target: HLA-DQ molecule DQB1*0502 (human); assay: as above

Binder: QVAQYKALPVVLENA [Fel d 1 1 (46-60) peptide QVAQYKALPVVLENA, Peptide ID 3324.1051]
- IC50 [1]: 0.61 µM
- IC50 [2]: 0.552 µM
- IC50 [3]: 1.6 µM
- IC50 [4]: 21.4 µM

Binder: NDKFTVFEGAFNKAI [Pha a 5 peptide, position 181, NDKFTVFEGAFNKAI (Peptide ID 3324.1442)]
- IC50 [5]: 0.097 µM
- IC50 [6]: 0.613 µM
- IC50 [7]: 0.177 µM
- IC50 [8]: 0.028 µM

Binder: RYANPIAFFRKEPLK [Lol p 11 peptide, position 111, RYANPIAFFRKEPLK (Peptide ID 3324.1138)]
- IC50 [9]: 9.74 µM
- IC50 [10]: 0.793 µM
- IC50 [11]: 1.6 µM
- IC50 [12]: 26 µM

Binder: FKAAVAAAAGAPPAD [Poa p 5 peptide, position 61 (Peptide ID 3324.1575)]
- IC50 [13]: 1.38 µM
- IC50 [14]: 25.7 µM
- IC50 [15]: 0.793 µM
- IC50 [16]: 6.78 µM

Binder: ATPEAKFDSFVAAFT [Poa p 5 peptide, position 121, ATPEAKFD5FVAAFT as printed in Table 8 (Peptide ID 3324.1570)]
- IC50 [5]: 3.24 µM
- IC50 [17]: 2.77 µM
- IC50 [7]: 4.85 µM

Binder: PAAAYATATPAAATA [Lol p 5 1 peptide, position 306, PAAAYATATPAAATA (Peptide ID 3324.1184), listing 1 of 2 here]
- IC50 [18]: 12.4 µM
- IC50 [5]: 0.611 µM
- IC50 [17]: 0.299 µM
- IC50 [8]: 3.49 µM

Binder: LWEVKSAKPLTGPMN [Lol p 3 peptide, position 51, LWEVKSAKPLTGPMN (Peptide ID 3337.0031)]
- IC50 [5]: 0.671 µM
- IC50 [17]: 18.6 µM

Binder: PAAAYATATPAAATA [Lol p 5 1 peptide, position 306, PAAAYATATPAAATA (Peptide ID 3324.1184), listing 2 of 2 here]
- IC50 [9]: 0.224 µM
- IC50 [10]: 7.45 µM
- IC50 [12]: 0.679 µM

Binder: GSCWAFSGVAATESA [Der f 1 peptide, position 131, GSCWAFSGVAATESA (Peptide ID 3324.0670)]
- IC50 [19]: 9.31 µM
- IC50 [20]: 14.4 µM

Binder: DINVGFKAAVAAAAG [Poa p 5 peptide, position 56 (Peptide ID 3324.1571)]
- IC50 [15]: 0.034 µM
- IC50 [16]: 5.41 µM

Binder: AQGKAFYEAVAKAHQ [Alt a 7 peptide, position 190, Peptide ID 3324.0080]
- IC50 [21]: 50 µM
- IC50 [22]: 2.36 µM

Binder: AIVYYSMYGHIKKMA [Alt a 7 (6-20) peptide AIVYYSMYGHIKKMA, Peptide ID 3324.0085]
- IC50 [3]: 3.35 µM
- IC50 [4]: 6.24 µM

Binder: NGNELLLDLSLTKVN [Fel d 1 2 (36-50) peptide NGNELLLDLSLTKVN, Peptide ID 3324.1055]
- IC50 [1]: 9.37 µM
- IC50 [2]: 2.87 µM
- IC50 [4]: 8.02 µM

Binder: MRNVFDDVVPADFKV [Lol p 2 peptide, position 76, MRNVFDDVVPADFKV (Peptide ID 3337.0030)]
- IC50 [5]: 0.082 µM
- IC50 [17]: 24.2 µM

Binder: GGRLAFQEFMIVPCE [Alt a 6 peptide, position 161, Peptide ID 3324.0073]
- IC50 [21]: 32.1 µM
- IC50 [23]: 4.94 µM
- IC50 [22]: 1.29 µM

Binder: LIEKINAGFKAAVAA [Lol p 5 1 peptide, position 71, LIEKINAGFKAAVAA (Peptide ID 3324.1175)]
- IC50 [17]: 2.42 µM

Binder: INELIASGSEKLASV [Alt a 5 peptide, position 51, Peptide ID 3324.0065]
- IC50 [24]: 25.9 µM
- IC50 [23]: 7.54 µM
- IC50 [22]: 0.302 µM

Binder: DAFIAALTEALRVIA [Pha a 5 peptide, position 121, DAFIAALTEALRVIA (Peptide ID 3324.1432)]
- IC50 [5]: 0.031 µM
- IC50 [17]: 29.7 µM
